The supplement of paper PMC10724198
± gives the standard deviation of the averaged measurements.

Experiments:
Saccharomyces cerevisiae [1] = test: protein stability index of tFT-peptide fusion (C-terminal peptide) (PSI (0-1 scale)); higher = more stable (slower turnover); conditions: genetic background: wild type; temperature: 30 C
Saccharomyces cerevisiae [2] = test: as above
Description: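 MPS profiling in S. cerevisiae of the tFT-X12 degron library: putative degron peptides plus stable controls, 12 aa, fused to the C-terminus of a sfGFP-mCherry timer. Cells are FACS-sorted into 8 mCherry/sfGFP bins and deep-sequenced. PSI runs from 0 (unstable) to 1 (stable). Backgrounds are wild type, das1Δ and doa10Δ at 30 °C, and wild type, das1Δ, cdc34-1 and cdc53-1 at 37 °C; 2-3 technical replicates each.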

[3] = genetic background: cdc34-1, temperature: 37 C
[4] = genetic background: cdc53-1, temperature: 37 C
[5] = genetic background: das1 deletion, temperature: 30 C
[6] = genetic background: das1 deletion, temperature: 37 C
[7] = genetic background: doa10 deletion, temperature: 30 C
[8] = genetic background: wild type, temperature: 30 C
[9] = genetic background: wild type, temperature: 37 C
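Also: PSI is a weighted mean of sequencing reads over stability bins, variants kept only with over 10 reads, mCherry proximal and sfGFP distal, peptide attached via GGGS linker.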

Sequence | protein stability index (Saccharomyces cerevisiae [1]) | protein stability index (Saccharomyces cerevisiae [2]; [3]) | protein stability index (Saccharomyces cerevisiae [2]; [4]) | protein stability index (Saccharomyces cerevisiae [2]; [5]) | protein stability index (Saccharomyces cerevisiae [2]; [6]) | protein stability index (Saccharomyces cerevisiae [2]; [7]) | protein stability index (Saccharomyces cerevisiae [2]; [8]) | protein stability index (Saccharomyces cerevisiae [2]; [9])
YLCCFSVAFFLG | 0.257 ± 0.072 | 0.175 ± 0.0039 | 0.331 ± 0.098 | 0.206 ± 0.039 | 0.3961 ± 0.00067 | 0.131 ± 4.8e-05 | 0.153 ± 0.018 | 0.317 ± 0.024
FIFCLSCGVWGG | 0.414 ± 0.02 | 0.5052 ± 0.0007 | 0.583 ± 0.027 | 0.478 ± 0.039 | 0.593 ± 0.023 | 0.49 ± 0.026 | 0.466 ± 0.012 | 0.5582 ± 0.0053
VCLVFLFQFVLI | 0.481 ± 0.011 | 0.482 ± 0.094 | 0.507 ± 0.029 | 0.406 ± 0.023 | 0.517 ± 0.0061 | 0.442 ± 0.028 | 0.41 ± 0.0094 | 0.491 ± 0.01
RIFRCYSFYVVV | 0.336 ± 0.021 | 0.496 ± 0.047 | 0.587 ± 0.029 | 0.393 ± 0.026 | 0.568 ± 0.024 | 0.272 ± 0.029 | 0.267 ± 0.031 | 0.4233 ± 0.0012
VRVLAALVLCVV | 0.312 ± 0.0089 | 0.159 ± 0.029 | 0.306 ± 0.021 | 0.217 ± 0.019 | 0.3799 ± 0.00079 | 0.156 ± 0.0081 | 0.189 ± 0.011 | 0.322 ± 0.011
GRLRLGVLCGGV | 0.529 ± 0.045 | 0.611 ± 0.016 | 0.661 ± 0.014 | 0.469 ± 0.021 | 0.655 ± 0.018 | 0.454 ± 0.0071 | 0.472 ± 0.013 | 0.634 ± 0.017
PRSLHVLSRFLP | 0.691 ± 0.018 | 0.692 ± 0.06 | 0.7371 ± 0.0014 | 0.651 ± 0.017 | 0.763 ± 0.037 | 0.599 ± 0.048 | 0.606 ± 0.031 | 0.712 ± 0.02
MFRSEVSWKLCC | 0.285 ± 0.054 | 0.619 ± 0.071 | 0.727 ± 0.015 | 0.624 ± 0.019 | 0.753 ± 0.011 | 0.1344 ± 0.00047 | 0.174 ± 0.025 | 0.409 ± 0.025
FSPSPVFVTCRV | 0.356 ± 0.01 | 0.247 ± 0.027 | 0.255 ± 0.013 | 0.208 ± 0.047 | 0.343 ± 0.0046 | 0.182 ± 0.0066 | 0.218 ± 0.031 | 0.296 ± 0.011
IIAVFRCCLRVY | 0.168 ± 0.076 | 0.052 ± 0.0087 | 0.12 ± 0.022 | 0.131 ± 0.034 | 0.216 ± 0.003 | 0.061 ± 0.02 | 0.0911 ± 0.025 | 0.152 ± 0.012
PPPYPPPPARSL | 0.5 ± 0.014 | 0.6336 ± 0.00079 | 0.6951 ± 0.0027 | 0.673 ± 0.016 | 0.6884 ± 0.0056 | 0.6825 ± 0.0033 | 0.689 ± 0.022 | 0.6823 ± 0.0034
VCLLVSVCLLWL | 0.252 ± 0.015 | 0.172 ± 0.0043 | 0.244 ± 0.047 | 0.21 ± 0.013 | 0.329 ± 0.021 | 0.18 ± 0.023 | 0.192 ± 0.025 | 0.309 ± 0.016
MSCILFCCLVPF | 0.4748 ± 0.0035 | 0.545 ± 0.039 | 0.57 ± 0.034 | 0.423 ± 0.023 | 0.568 ± 0.014 | 0.381 ± 0.012 | 0.402 ± 0.029 | 0.549 ± 0.017
PILRGRPTPAIL | 0.708 ± 0.021 | 0.691 ± 0.031 | 0.731 ± 0.013 | 0.662 ± 0.018 | 0.7426 ± 0.0046 | 0.681 ± 0.018 | 0.668 ± 0.023 | 0.7026 ± 0.0044
VCRCFPVCLFSF | 0.413 ± 0.031 | 0.6178 ± 0.0049 | 0.692 ± 0.014 | 0.523 ± 0.023 | 0.706 ± 0.027 | 0.294 ± 0.0057 | 0.341 ± 0.029 | 0.519 ± 0.02
GFFFYFVLFGLS | 0.409 ± 0.0059 | 0.34 ± 0.061 | 0.409 ± 0.0011 | 0.29 ± 0.015 | 0.47314 ± 0.00013 | 0.285 ± 0.011 | 0.268 ± 0.018 | 0.446 ± 0.016
FFVEFFLLCFCS | 0.476 ± 0.0053 | 0.497 ± 0.023 | 0.498 ± 0.024 | 0.463 ± 0.057 | 0.503 ± 0.036 | 0.476 ± 0.0075 | 0.472 ± 0.019 | 0.515 ± 0.033
QDQWINTSLELS | 0.751 ± 0.056 | 0.677 ± 0.018 | 0.759 ± 0.0081 | 0.676 ± 0.039 | 0.7465 ± 0.0027 | 0.685 ± 0.015 | 0.68 ± 0.035 | 0.711 ± 0.024
GRFGVGVVFRLA | 0.456 ± 0.043 | 0.669 ± 0.038 | 0.72 ± 0.016 | 0.637 ± 0.028 | 0.719 ± 0.01 | 0.347 ± 0.032 | 0.393 ± 0.027 | 0.6096 ± 0.0043
PRHERPPRDNGH | 0.709 ± 0.025 | 0.674 ± 0.041 | 0.72232 ± 0.00022 | 0.655 ± 0.011 | 0.73 ± 0.013 | 0.6522 ± 0.0063 | 0.654 ± 0.025 | 0.702 ± 0.022
WLGCVLIGWHVL | 0.27 ± 0.011 | 0.355 ± 0.0098 | 0.413 ± 0.0055 | 0.288 ± 0.048 | 0.481 ± 0.01 | 0.169 ± 0.0054 | 0.19 ± 0.017 | 0.364 ± 0.052
GACRVSSCVVVC | 0.4477 ± 0.0044 | 0.504 ± 0.011 | 0.548 ± 0.024 | 0.37 ± 0.032 | 0.571 ± 0.0072 | 0.316 ± 0.006 | 0.358 ± 0.014 | 0.526 ± 0.0059
CVLSWSLFVVVW | 0.044 ± 0.026 | 0.0234 ± 0.0015 | 0.028 ± 0.0018 | 0.0273 ± 0.0091 | 0.0441 ± 0.011 | 0.0209 ± 0.0017 | 0.0168 ± 0.0058 | 0.0346 ± 0.015
LFLVFIGLFFLT | 0.413 ± 0.012 | 0.348 ± 0.011 | 0.429 ± 0.035 | 0.359 ± 0.061 | 0.46 ± 0.011 | 0.338 ± 0.011 | 0.327 ± 0.015 | 0.441 ± 0.01
TCVVCSCVLQCV | 0.362 ± 0.04 | 0.47 ± 0.041 | 0.491 ± 0.02 | 0.307 ± 0.023 | 0.49 ± 0.0051 | 0.305 ± 0.027 | 0.324 ± 0.028 | 0.4641 ± 0.0042
RWCLELLWITSC | 0.162 ± 0.015 | 0.325 ± 0.013 | 0.451 ± 0.013 | 0.355 ± 0.03 | 0.5006 ± 0.005 | 0.0892 ± 0.0011 | 0.0824 ± 0.015 | 0.0678 ± 0.011
INGINHKIIKIV | 0.155 ± 0.025 | 0.44 ± 0.025 | 0.721 ± 0.042 | 0.65 ± 0.036 | 0.72 ± 0.013 | 0.0842 ± 0.014 | 0.0896 ± 0.017 | 0.0909 ± 0.0048
SPRSIALLHLFS | 0.3 ± 0.044 | 0.648 ± 0.063 | 0.708 ± 0.051 | 0.655 ± 0.02 | 0.705 ± 0.062 | 0.154 ± 0.017 | 0.213 ± 0.031 | 0.327 ± 0.024
VGASLVVIAIGV | 0.466 ± 0.032 | 0.5122 ± 0.0012 | 0.5401 ± 0.0048 | 0.377 ± 0.034 | 0.5445 ± 0.0033 | 0.3442 ± 0.0029 | 0.387 ± 0.012 | 0.5181 ± 0.0048
ASVSVWCVSVVV | 0.15 ± 0.026 | 0.124 ± 0.017 | 0.166 ± 0.0023 | 0.103 ± 0.02 | 0.1641 ± 0.00088 | 0.087 ± 0.024 | 0.109 ± 0.017 | 0.148 ± 0.011
